We go through three molecules from US20220332800A1 (Takeda / Millennium, published 2022).

The target of assay [1] is T1, ZIKV-VLP (Native Antigen Inc.) (Zika virus).
T1 construct: also called Zika VLP; ZVLP
The assay can be described thus: BLI (Octet), supernatant IgG captured on Protein A biosensor, ZIKV-VLP 3.3 µg/mL in solution, 1:1 model.

In another assay the target is Zika PRVABC59 live virus (Zika virus). The assay can be described thus: cell-based or functional assay.
Assay [2] deals with T1, ZIKV-VLP (Native Antigen Inc.). The assay can be described thus: BLI binning on ZIKV-VLP; 1st mAb: 242-3.
Assay [3] has the same target. The assay can be described thus: indirect ELISA, purified antibody serially diluted from 10 µg/ml.
Assay [4] has the same target. The assay can be described thus: BLI binning on ZIKV-VLP; 1st mAb: 78-2.
For assay [5] the target is unchanged. The assay can be described thus: BLI binning on ZIKV-VLP; 1st mAb: Ab1.
The target is the same in assay [6]. The assay can be described thus: BLI binning on ZIKV-VLP; 1st mAb: Ab2.
The target is the same in assay [7]. The assay can be described thus: BLI binning on ZIKV-VLP; 1st mAb: 11-3.
For assay [8] the target is unchanged. The assay can be described thus: BLI binning on ZIKV-VLP; 1st mAb: 289-3.
Assay [9] has the same target. The assay can be described thus: BLI binning on ZIKV-VLP; 1st mAb: 102-1.
Assay [10] has the same target. The assay can be described thus: BLI binning on ZIKV-VLP; 1st mAb: 329-2.
The target is the same in assay [11]. The assay can be described thus: BLI binning on ZIKV-VLP; 1st mAb: 181-4.
The target is the same in assay [12]. The assay can be described thus: BLI binning on ZIKV-VLP; 1st mAb: 306-2.
For assay [13] the target is unchanged. The assay can be described thus: BLI binning on ZIKV-VLP; 1st mAb: 260-2.
Assay [14] has the same target. The assay can be described thus: BLI binning on ZIKV-VLP; 1st mAb: C10.
The target is the same in assay [15]. The assay can be described thus: BLI binning on ZIKV-VLP; 1st mAb: 4G2.
For assay [16] the target is unchanged. The assay can be described thus: BLI binning on ZIKV-VLP; 1st mAb: 270-12.
The target is the same in assay [17]. The assay can be described thus: ELISA, hybridoma supernatant (Abcam data).
The target is the same in assay [18]. The assay can be described thus: BLI binning on ZIKV-VLP; 1st mAb (row): 242-3.
Assay [19] shares this target. The assay can be described thus: BLI binning on ZIKV-VLP; 1st mAb (row): 102-1.
Assay [20] has the same target. The assay can be described thus: BLI binning on ZIKV-VLP; 1st mAb (row): 289-3.
Assay [21] shares this target. The assay can be described thus: BLI binning on ZIKV-VLP; 1st mAb (row): C10.
The target is the same in assay [22]. The assay can be described thus: ELISA, purified recombinant mAb.
For assay [23] the target is unchanged. The assay can be described thus: BLI binning on ZIKV-VLP; 1st mAb (row): 270-12.
Assay [24] has the same target. The assay can be described thus: BLI binning on ZIKV-VLP; 1st mAb (row): 306-2.
Assay [25] has the same target. The assay can be described thus: indirect ELISA, subclone supernatant.

Numbering of substitutions follows the chain as printed.

B1: anti-ZIKV antibody 181-4/329-2 (antibody)
heavy: QAQLEESGGDLVKPEGSLTLTCTASGFSFTDRHYMCWVRQAPGKGLEWIACVYPGSSGSTYYASWARGRFTISKTSSTTVTLRMTSLTAADTATYFCARSSYPDSSGYSYGMDLWGPGTLVTVSSGQPKAPSVFPLAPCCGDTPSSTVTLGCLVKGYLPEPVTVTWNSGTLTNGVRTFPSVRQSSGLYSLSSVVSVTSSSQPVTCNVAHPATNTKVDKTVAPSTCSKPTCPPPELLGGPSVFIFPPKPKDTLMISRTPEVTCVVVDVSQDDPEVQFTWYINNEQVRTARPPLREQQFNSTIRVVSTLPIAHQDWLRGKEFKCKVHNKALPAPIEKTISKARGQPLEPKVYTMGPPREELSSRSVSLTCMINGFYPSDISVEWEKNGKAEDNYKTTPAVLDSDGSYFLYSKLSVPTSEWQRGDVFTCSVMHEALHNHYTQKSISRSPGK
light: DIVMTQTPASVEAAVGGTVTIKCQASQNINSNLAWYQQKPGQRPKFLMYLTSKLASGVPSRFRGSGSGTQFTLTISDLECADAATYYCQTYYDISNYGYAFGGGTEVVVKGDPVAPTVLIFPPAADQVATGTVTIVCVANKYFPDVTVTWEVDGTTQTTGIENSKTPQNSADCTYNLSSTLTLTSTQYNSHKEYTCKVTQGTTSVVQSFNRGDC
B1 registered a dissociation rate constant (koff) in assay [1] below 1e-07 s⁻¹. Further, the “MNT IC50 (ng/mL) of Purified antibody” value with Zika PRVABC59 live virus was 26.7 ng/mL. Moreover, the “response of 2nd mAb” value in [2] came out at 0.01. Also, in [3], the response was half-maximal at 0.0114 µg/mL (EC50).

B2: anti-ZIKV antibody 260-3 (antibody)
heavy: B1 heavy with S124P
light: B1 light
notes: also called clone 260-3
For the molecule B2, the “response of 2nd mAb” value in assay [4] was 0.33; in assay [5] it was 0.32; in assay [6] it was 4.96; in [7], 0.36; in assay [8] it was -0.03; in assay [9], 0.03. Besides, the “response of 2nd mAb” value in assay [10] was 0.01; in assay [11] it was 0; in assay [12] it was 0.32; in assay [13], 0; in [14], 4.06; in [15], 0.67. For the same molecule, the “response of 2nd mAb” value in assay [2] and in assay [16] was 0.01 each time. The koff in assay [1] was below 1e-07 s⁻¹. Besides, in the assay with Zika PRVABC59 live virus, the “MNT IC50 (ng/mL) of Purified antibody” value came to 19.9 ng/mL. In assay [3], this molecule showed an EC50 of 0.00793 µg/mL.

B3: anti-ZIKV antibody 289-3 (antibody, V domains shown)
VH: QEELEESGGDLVKPGASLTLTCKASGFSFSSGAYICWVRQAPGKGPEWIACIYTGDGRTYYANWAKRRFTISSSSSTTVALEMPSLTDADTATYFCARAIAVGAGYGVGNYFTLWGPGTLVTVSS
VL: DIVMTQTPSSVSAAVGGTVTINCHASENIYGYLSWYQQKPGQPPKLLIYKASTLASGVPSRFKGSGAGTQFTLTITALECADAATYYCQSYYTSSSNADGSENAFGGGTEVVVEG
notes: also called clone 289-3; subclone 289-3
B3 returned an OD in [17] of 0.94 OD. For the same molecule, the “response of 2nd mAb” value in assay [18] came to 0.0011; in assay [4], 0.46; in assay [19], 0.0047; in assay [5], 0.4; in assay [6] it was 3.79; in assay [20] it was 0.0128. Moreover, the “response of 2nd mAb” value in assay [7] is 0.52; in [8], 0.02; in assay [21], 0.0265; in assay [9], 0.09; in [10], -0.01; in assay [11], 0.01. In addition, the “response of 2nd mAb” value in assay [12] is 0.24; in assay [23], 0.0064; in [13], 0.04; in [14], 4.55; in assay [15] it was 1.04; in [2], 0.07. Moreover, the entries for the “response of 2nd mAb” value in [16] and in [24] were 0.02 and 0.0428, respectively. For the same molecule, the “ELISA OD” value in assay [22] came to 3.21 OD. In [1], the koff worked out at 0.000113 s⁻¹. The concentration for a half-maximal effect (EC50) in [3] came to 0.00724 µg/mL. Moreover, the “VLP (OD) binding” value in [25] worked out at 0.94 OD.
